Reference: the supplement of paper PMC9876800

Tested on: peptide library, one residue held at a place counted from the S/T acceptor
Test: relative phosphorylation of the sub-library (ratio to the mean residue at this position); human; higher = residue favoured
Method in brief: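 Relative sub-library phosphorylation is a ratio to the mean residue at the same position. Purified recombinant kinases were incubated under kinase-specific conditions with biotinylated degenerate peptide sub-libraries, each fixing one residue at one position around a central Ser/Thr, using 50 μM peptide and 50 μM ATP spiked with γ-32P-ATP for 90 min. Spots captured on streptavidin membranes were phosphorimaged and quantified by densitometry.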

Chain of STK10, construct: aa18-317 (O94804 18-317, looked up): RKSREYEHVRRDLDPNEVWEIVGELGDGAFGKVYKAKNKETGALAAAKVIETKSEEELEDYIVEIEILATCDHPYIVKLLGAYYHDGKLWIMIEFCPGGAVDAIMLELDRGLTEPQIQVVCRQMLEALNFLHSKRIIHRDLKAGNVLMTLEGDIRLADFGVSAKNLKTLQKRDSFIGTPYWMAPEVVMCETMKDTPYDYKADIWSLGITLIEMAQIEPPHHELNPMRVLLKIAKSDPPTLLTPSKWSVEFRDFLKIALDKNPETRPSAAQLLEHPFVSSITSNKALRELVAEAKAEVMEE
Chain of NEK11, construct: Full length (Q8NG66 whole entry, looked up): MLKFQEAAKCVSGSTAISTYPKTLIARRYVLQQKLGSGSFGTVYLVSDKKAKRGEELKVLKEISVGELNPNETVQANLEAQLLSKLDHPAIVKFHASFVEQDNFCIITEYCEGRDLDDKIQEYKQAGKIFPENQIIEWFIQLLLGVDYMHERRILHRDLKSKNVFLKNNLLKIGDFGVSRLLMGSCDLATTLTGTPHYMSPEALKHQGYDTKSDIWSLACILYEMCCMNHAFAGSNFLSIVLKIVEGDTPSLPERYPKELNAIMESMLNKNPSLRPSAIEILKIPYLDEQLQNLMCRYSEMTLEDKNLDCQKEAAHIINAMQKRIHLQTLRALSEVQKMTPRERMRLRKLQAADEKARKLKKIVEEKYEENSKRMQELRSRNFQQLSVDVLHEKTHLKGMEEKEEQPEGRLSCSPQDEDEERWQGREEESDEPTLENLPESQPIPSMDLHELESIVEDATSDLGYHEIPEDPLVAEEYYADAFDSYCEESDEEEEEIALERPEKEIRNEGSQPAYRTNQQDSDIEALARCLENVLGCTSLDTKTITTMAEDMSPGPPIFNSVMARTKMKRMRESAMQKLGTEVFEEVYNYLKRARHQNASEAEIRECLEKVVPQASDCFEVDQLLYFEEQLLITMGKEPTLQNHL
Chain of CIT, construct: aa1-449 (O14578 1-449, looked up): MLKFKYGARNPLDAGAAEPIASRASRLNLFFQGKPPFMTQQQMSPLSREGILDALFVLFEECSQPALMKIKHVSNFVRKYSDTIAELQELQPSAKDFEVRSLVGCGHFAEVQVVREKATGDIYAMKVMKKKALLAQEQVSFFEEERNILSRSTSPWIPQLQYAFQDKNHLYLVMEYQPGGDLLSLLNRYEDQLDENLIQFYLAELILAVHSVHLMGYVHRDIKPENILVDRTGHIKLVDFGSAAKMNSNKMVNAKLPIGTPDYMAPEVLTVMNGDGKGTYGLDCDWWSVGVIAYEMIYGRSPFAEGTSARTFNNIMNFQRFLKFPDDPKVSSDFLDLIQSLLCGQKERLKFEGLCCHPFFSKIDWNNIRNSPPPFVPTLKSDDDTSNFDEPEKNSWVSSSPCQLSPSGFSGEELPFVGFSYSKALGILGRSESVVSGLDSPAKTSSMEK

CIT, construct: aa1-449 (from UniProt O14578)
relative phosphorylation
Conditions | at +1 | at +2 | at +3 | at +4 | at -1 | at -2 | at -3 | at -4 | at -5
A fixed | 0.788 | 1.01 | 0.8 | 0.784 | 0.721 | 0.715 | 0.553 | 1 | 0.448
D fixed | 0.453 | 0.586 | 0.789 | 0.886 | 0.385 | 0.254 | 0.176 | 0.422 | 0.299
E fixed | 0.373 | 0.517 | 0.638 | 0.851 | 0.372 | 0.28 | 0.171 | 0.504 | 0.276
F fixed | 1.34 | 1 | 1.37 | 0.882 | 0.778 | 0.406 | 0.259 | 0.622 | 0.767
G fixed | 0.937 | 2.04 | 1.1 | 1.13 | 0.905 | 0.435 | 0.382 | 0.931 | 0.498
H fixed | 1.24 | 1.3 | 1.67 | 1.15 | 1.75 | 0.874 | 0.797 | 0.997 | 0.804
I fixed | 0.914 | 0.884 | 0.866 | 0.948 | 0.394 | 0.693 | 0.251 | 0.612 | 1.09
K fixed | 0.779 | 0.694 | 0.781 | 0.858 | 2.2 | 3.1 | 1.76 | 2.77 | 1.75
L fixed | 1.02 | 0.768 | 0.995 | 1.01 | 0.874 | 0.826 | 0.25 | 0.74 | 0.89
M fixed | 1.14 | 0.77 | 0.889 | 1.03 | 0.888 | 0.88 | 0.303 | 0.801 | 0.603
N fixed | 1.41 | 1.06 | 0.882 | 1.14 | 1.17 | 0.779 | 0.4 | 0.735 | 0.465
P fixed | 0.461 | 1.36 | 1.23 | 1.43 | 1.39 | 0.42 | 0.739 | 0.978 | 0.631
Q fixed | 1.15 | 0.762 | 0.931 | 1.04 | 0.969 | 1.03 | 0.7 | 0.924 | 0.72
R fixed | 1.05 | 0.907 | 0.763 | 0.874 | 1.85 | 4.68 | 9.39 | 3.11 | 5.94
V fixed | 0.734 | 0.86 | 0.816 | 0.805 | 0.506 | 0.838 | 0.299 | 0.683 | 0.523
W fixed | 1.55 | 1.16 | 1.31 | 1.21 | 0.682 | 0.407 | 0.302 | 0.571 | 0.591
Y fixed | 1.66 | 1.33 | 1.17 | 0.979 | 1.17 | 0.389 | 0.272 | 0.598 | 0.707
pThr fixed | 0.466 | 0.609 | 0.878 | 1.12 | 0.349 | 0.323 | 0.259 | 0.491 | 0.405
pTyr fixed | 0.784 | 0.65 | 0.802 | 0.925 | 0.34 | 0.333 | 0.226 | 0.395 | 0.554

STK10, construct: aa18-317 (from UniProt O94804)
relative phosphorylation
Conditions | at +1 | at +2 | at +3 | at +4 | at -1 | at -2 | at -3 | at -4 | at -5
A fixed | 0.6 | 0.853 | 0.817 | 0.9 | 0.811 | 0.667 | 0.873 | 0.975 | 1.15
D fixed | 0.168 | 0.371 | 0.456 | 0.637 | 0.412 | 0.51 | 0.598 | 0.695 | 0.905
E fixed | 0.167 | 0.225 | 0.409 | 0.563 | 0.304 | 0.216 | 0.598 | 0.776 | 0.605
F fixed | 1.23 | 0.634 | 0.846 | 0.816 | 0.911 | 2.13 | 1.02 | 0.85 | 0.846
G fixed | 0.564 | 1.09 | 1.09 | 1.21 | 0.703 | 0.543 | 0.936 | 1.35 | 1.28
H fixed | 1.06 | 1.48 | 1.26 | 1.04 | 1.41 | 1.07 | 1.25 | 1.16 | 1.15
I fixed | 1.47 | 0.48 | 0.568 | 0.666 | 0.539 | 0.384 | 0.505 | 0.718 | 0.672
K fixed | 1.04 | 2.28 | 1.92 | 1.7 | 1.99 | 1.86 | 2.07 | 1.62 | 1.81
L fixed | 2.1 | 0.629 | 0.809 | 0.876 | 1.18 | 0.559 | 0.612 | 0.767 | 0.654
M fixed | 1.83 | 0.729 | 0.72 | 0.827 | 1.12 | 0.918 | 0.759 | 0.858 | 0.768
N fixed | 0.757 | 1.12 | 0.961 | 1.17 | 1.13 | 0.879 | 1.07 | 0.837 | 1.15
P fixed | 0.321 | 1.05 | 1.62 | 1.48 | 0.584 | 0.492 | 0.85 | 1.14 | 1.09
Q fixed | 0.763 | 0.952 | 0.954 | 1.17 | 1.03 | 0.777 | 1.02 | 0.956 | 0.82
R fixed | 1.18 | 3.13 | 2.06 | 1.63 | 1.96 | 1.72 | 2.01 | 1.58 | 1.73
V fixed | 0.956 | 0.56 | 0.613 | 0.724 | 0.6 | 0.485 | 0.475 | 0.795 | 0.814
W fixed | 1.49 | 0.732 | 0.987 | 0.896 | 0.93 | 0.881 | 1.24 | 1.05 | 0.769
Y fixed | 1.3 | 0.688 | 0.91 | 0.699 | 1.38 | 2.91 | 1.11 | 0.877 | 0.788
pThr fixed | 0.44 | 0.484 | 0.586 | 0.537 | 0.274 | 0.358 | 0.612 | 0.857 | 0.871
pTyr fixed | 0.362 | 0.314 | 0.667 | 0.476 | 0.382 | 0.491 | 0.938 | 0.816 | 0.855

PRKCG, construct: Full length (from UniProt P05129)
relative phosphorylation
Conditions | at +1 | at +2 | at +3 | at +4 | at -1 | at -2 | at -3 | at -4 | at -5
A fixed | 0.569 | 0.495 | 0.701 | 0.922 | 0.946 | 0.862 | 0.699 | 1.09 | 1.16
D fixed | 0.22 | 0.261 | 0.452 | 0.666 | 0.538 | 0.455 | 0.412 | 0.62 | 0.676
E fixed | 0.29 | 0.183 | 0.628 | 0.508 | 0.477 | 0.388 | 0.415 | 0.708 | 0.554
F fixed | 1.46 | 0.545 | 0.842 | 0.662 | 0.479 | 0.72 | 0.771 | 0.818 | 1.21
G fixed | 0.516 | 0.337 | 1.06 | 1.27 | 1.87 | 1.19 | 1.06 | 1.32 | 1.23
H fixed | 0.686 | 1.26 | 1.23 | 1.32 | 0.972 | 1.12 | 1.3 | 1.28 | 1.23
I fixed | 1.37 | 0.507 | 0.723 | 0.507 | 0.311 | 0.329 | 0.381 | 0.49 | 0.572
K fixed | 1.92 | 4.06 | 2.11 | 2.56 | 1.87 | 2.01 | 2 | 1.55 | 1.71
L fixed | 1.34 | 0.484 | 0.932 | 0.531 | 0.548 | 0.409 | 0.469 | 0.506 | 0.589
M fixed | 1.56 | 0.599 | 0.738 | 0.586 | 0.741 | 0.606 | 0.652 | 0.767 | 0.572
N fixed | 0.652 | 0.609 | 1.02 | 1.01 | 1.24 | 1.28 | 1.08 | 1.1 | 0.85
P fixed | 0.333 | 0.334 | 0.516 | 1.36 | 1.16 | 1.16 | 1.12 | 1.09 | 0.937
Q fixed | 1.15 | 0.688 | 0.856 | 1.09 | 1.08 | 1.21 | 0.934 | 1.05 | 0.887
R fixed | 1.98 | 4.33 | 2.43 | 1.97 | 2.85 | 2.99 | 3.78 | 1.94 | 1.71
V fixed | 1.15 | 0.48 | 0.608 | 0.563 | 0.497 | 0.418 | 0.496 | 0.639 | 0.723
W fixed | 0.751 | 0.6 | 1.03 | 0.817 | 0.558 | 1 | 0.707 | 1.23 | 1.54
Y fixed | 1.05 | 1.22 | 1.12 | 0.664 | 0.869 | 0.841 | 0.725 | 0.799 | 0.848
pThr fixed | 0.973 | 0.563 | 0.673 | 0.486 | 0.484 | 0.746 | 0.805 | 0.947 | 0.683
pTyr fixed | 0.794 | 0.916 | 0.911 | 0.498 | 0.875 | 0.842 | 0.973 | 0.86 | 0.8

NEK11, construct: Full length (from UniProt Q8NG66)
relative phosphorylation
Conditions | at +1 | at +2 | at +3 | at +4 | at -1 | at -2 | at -3 | at -4 | at -5
A fixed | 0.432 | 0.613 | 0.845 | 0.834 | 0.977 | 1.38 | 1.06 | 0.887 | 1.02
D fixed | 0.25 | 0.395 | 0.499 | 0.597 | 0.64 | 0.742 | 0.568 | 0.73 | 0.677
E fixed | 0.234 | 0.349 | 0.53 | 0.606 | 0.59 | 0.579 | 0.643 | 0.659 | 0.709
F fixed | 2.35 | 0.978 | 1.48 | 0.997 | 0.918 | 1.49 | 1.22 | 1.33 | 1.18
G fixed | 0.494 | 0.664 | 0.797 | 0.876 | 1.57 | 1.28 | 1.01 | 1.2 | 1.36
H fixed | 0.625 | 1.42 | 0.962 | 1.28 | 1.1 | 0.909 | 0.976 | 0.929 | 1.11
I fixed | 2 | 0.549 | 0.797 | 0.497 | 0.491 | 0.542 | 0.671 | 0.724 | 0.866
K fixed | 0.563 | 1.85 | 1.3 | 1.96 | 1.67 | 0.867 | 1.12 | 1.06 | 0.901
L fixed | 1.86 | 0.787 | 1.25 | 0.805 | 0.914 | 0.975 | 1.12 | 0.945 | 0.763
M fixed | 2.27 | 1.06 | 1.2 | 0.824 | 1.42 | 1.06 | 1.4 | 1.07 | 1.13
N fixed | 0.573 | 1.06 | 1.05 | 1.11 | 1.23 | 1.42 | 1.18 | 1.08 | 1.03
P fixed | 0.479 | 0.795 | 0.931 | 1 | 0.558 | 1.05 | 0.971 | 1.08 | 0.927
Q fixed | 0.605 | 0.78 | 0.885 | 1.27 | 0.942 | 0.944 | 0.983 | 1.06 | 0.893
R fixed | 0.494 | 1.93 | 0.864 | 1.02 | 1.53 | 0.991 | 1.2 | 1.12 | 1.23
V fixed | 0.926 | 0.566 | 0.965 | 0.695 | 0.605 | 0.601 | 0.696 | 0.778 | 0.863
W fixed | 1.23 | 1.02 | 1.43 | 1.42 | 0.764 | 1.1 | 0.979 | 1.31 | 1.21
Y fixed | 1.62 | 2.17 | 1.21 | 1.21 | 1.08 | 1.06 | 1.21 | 1.03 | 1.13
pThr fixed | 0.998 | 1.15 | 1.06 | 0.672 | 0.94 | 1.38 | 1.37 | 1.47 | 1.17
pTyr fixed | 0.509 | 0.51 | 0.848 | 0.63 | 1.11 | 0.973 | 1.42 | 0.98 | 1.27
